The text below walks through data of the nanobody polyreactivity screen of Harvey et al. (2022).

The series can be described thus: yeast display, Sf9 membrane polyspecificity reagent, FACS + sequencing; frameworks hold sequencing errors. The method in brief:
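In a synthetic yeast display library (Saccharomyces cerevisiae BJ5465), nanobody expression was induced with galactose for 36–48 hours. FACS gates were set low and high (top ~1%) using anti-HA fluorescence for expression and streptavidin fluorescence for binding of the Sf9 membrane reagent. Each polyreactivity label is drawn from the gate of origin.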
Consider “QVQLVESGGGLVQAGGSLRLSCSASGITFKLNSMGWYRQAPGKERELVAAITSTGGSTYYADSVKGRFTISRDNAKNTVYLQMNSLKPEDTAVYYCATDILIDGFYSDYWGQGTQVTVSS”, for which the “polyreactivity (PSR sort gate)” value is reported as “high polyreactivity”. As for “QVQLVESGGGLVQAGGSLRLSCSASGITFLHYAMGWYIQAPGKERELVARITYSGSSTYYADSVKGRFTISRDNAKNTVYLQMNSLKPEDTAVYYCNASASWGRWSRTGTPRYYYWGQGTQVTVSS”, the “polyreactivity (PSR sort gate)” value was “high polyreactivity”.

For the sequence “QVQLVESGGGLVQAGGSLRLSCSASGLTFYSYTKGWYRQAPGKERELVAAISYSGGNTYYADSVKGRFTISRDNAKNTVYLQMNSLKQEDTAVYYCNAYFRWYWLIEYDYWGQGTQVTVSS”, the “polyreactivity (PSR sort gate)” value is “high polyreactivity”.

As for “QVQLVESGGGLVQAGGSLRLSCSASGNIIRKYAMGWYRQAPGKEREFVAAISSSGGRTYYADSVKGRFTISRDNAKNTVYLQMNSLKPEDTAVYYCAKDPYGRLQPRPRFGYWGQGTQVTVSS”, the “polyreactivity (PSR sort gate)” value was “high polyreactivity”.

For the sequence “QVQLVESGGGLVQAGGSLRLSCSASGNNFESYGMGWYRQAPGKERELVATINTSSGSTNYADSVKGRFTISRDNAKNTVYVQMNSLKPEDTAVYYCAAVFVEQGEDDYWGQGTQVTVSS”, the “polyreactivity (PSR sort gate)” value is listed as “low polyreactivity”.

With “QVQLVESGGGLVQAGGSLRLSCSASGRIFFSYAMGWYRQAPGKERELVAAISRDGGTPYYADSVKGRFTISRDNAKNTVSLLLNSLKPEDTAVYYCADDWYLRRRIYGYWGQGTEVTVSS”, the “polyreactivity (PSR sort gate)” value is on record as “high polyreactivity”. The entry for “QVQLVESGGGLVQAGGSLRLSCSASGRIFKRYAMGWYRQSPGKERELVAAFTRGGSTNYADSVKGRFTISRDNAKNTVYLQMNSLKPEDTAVYYCNRYGGTRYWGRGTQVTVSS” is “high polyreactivity”; for “QVQLVESGGGLVQAGGSLRLSCSASGRIFPRYAMGWYIQEPGKEMELFATISSGGSTYYADSVKGRFTITRDNAKNTVYLQMNSLKPEDTADYYCADRKGQYTVINGMDYWGQGTQVTVSS” it is “low polyreactivity”. On to “QVQLVESGGGLVQAGGSLRLSCSASGRIFRINAMGWYRQAPGKDRELVASISRRGGNTYYADSVKGRFTISRDNAKNTVYLQMNSLKPEDTAVYYCAADVHTPALYTYAAGDYWGQGTQVTVSS”, for which the “polyreactivity (PSR sort gate)” value is “low polyreactivity”.

“QVQLVESGGGLVQAGGSLRLSCSASGRTFNKYAMGWYRQAPGKERELVAAISRSGGSTYYADSVKGRFTISRDNAKNTVYLQMNSLKPEDTAVYYCNAAYFGQHVGTGFDYWGQGTQVTVSS”: the “polyreactivity (PSR sort gate)” value is given as “high polyreactivity”. “QVQLVESGGGLVQAGGSLRLSCSASGRTSVLYAMGWYRQAPGKEREFVAAITWNSGSTYYADSVKGRFTISRDHAKNTVYLQMISLKPEDTAVYYCNADYYFSSYRSTYDYWGQGTQVTVSS”: the “polyreactivity (PSR sort gate)” value is reported as “low polyreactivity”. “QVQLVESGGGLVQAGGSLRLSCSASGSIFAYYAMGWYRQAPGKERELVAAISKSAGSTYYADSVKGRFTISRDNAKNTVYLQMNSLKPEDTAVYYCAAVVLGRRLGFRGDYNYWGQGTQVTVSS”: the “polyreactivity (PSR sort gate)” value is on record as “high polyreactivity”. “QVQLVESGGGLVQAGGSLRLSCSASGSIFGYYGMGLYRQAPGKERELVATISWSGDSTNYADSVKGRFTISRDNAKNTVYLQMNSLKPEDTAVYYCAAEWHAGWGGWLRYRHYEYWGQRTQVTVSS”: the “polyreactivity (PSR sort gate)” value was “low polyreactivity”. As to “QVQLVESGGGLVQAGGSLRLSCSASGSIFKRNAMGWYRQAPGKERELVAAITTRGGRTYYADSVKGRFTISRDNAKNTVYLQLNSLKPEDTAVYFCAVVPAAGSGGYGYSRYDYWGQGSQVTVSS”, the “polyreactivity (PSR sort gate)” value is “high polyreactivity”. Regarding “QVQLVESGGGLVQAGGSLRLSCSASGSIFKYYTMGWYRQAPGKERELVASINGGGSTNYADSVKGRFTISRDNAKNTVYLQMNSLKPEDTAVYYCNARYWWQDGYWGQGTQLTVSS”, the “polyreactivity (PSR sort gate)” value is recorded as “high polyreactivity”.

“QVQLVESGGGLVQAGGSLRLSCSASGSIFPYYAMGWSRQAPGKERELVAAISRSGGSTYYADSVKGRFTISRDNAKNTVYLQMNSLKPEDTAGYYCAAVGGVRPQQHYYYRYDYWGQGTQVTVSS”: the “polyreactivity (PSR sort gate)” value was “high polyreactivity”. Turning to “QVQLVESGGGLVQAGGSLRLSCSASGSIFSANVMGWYRQAPGKDRELVAAIRRGGTTYYADSVKGRFTISRDNAKNTVYLQMNSLKPEDNAVYYCATDGIFGSYLRFEVAYDYWGQGTQVTVSS”, the “polyreactivity (PSR sort gate)” value is given as “low polyreactivity”. Regarding “QVQLVESGGGLVQAGGSLRLSCSASGSIFVWYDMGWYRQAPGKERELVATISLSGVSTYYADSVKGRFTISRDNAKNTVYLQMNSLKPEDTAVYYCNKDDPVDGPLYFRKYDYWGQGTQVTVSS”, the “polyreactivity (PSR sort gate)” value was “low polyreactivity”. The entry for “QVQLVESGGGLVQAGGSLRLSCSASGSTFGDYAMRWYRQAPGKREFVAAISFSGGNTYYADSVKVRFTISRDNAKNTVYLQMNSLKPEDTAVYYCNADWDWFYSTGSLGFPDFYYWGQGTQVSVSS” is “low polyreactivity”. Then “QVQLVESGGGLVQAGGSLRLSCSASGSTFGRYVMGWYRQPPGKERELVAAISKNAGSTYYADSVKGRFTISRDNAKNTVYLQMNSLKPEDTAVYYCNTVYYWYSPLNYWGQGTQVTVSS”, with “high polyreactivity”; and “QVQLVESGGGLVQAGGSLRLSCSASGSTFHYNAMGWYRQAQGKERELVAYISWRGASKYDADSVKGRFTISRDNAKNTVYLQMSSMKTEDTAVFFFNAVLTSYWYNSYKSRGDYWGQGTLVTVSS”, with “high polyreactivity”. As for “QVQLVESGGGLVQAGGSLRLSCSASGSTFRVYAMGWYRQAPGKERELVAAISWSGGRTYYADSVKGRFTISRDNAKNTVYLQMNSLKPEDTAVYYCAADTYGRYDYWGQGTQVTVSS”, the “polyreactivity (PSR sort gate)” value is on record as “high polyreactivity”. “QVQLVESGGGLVQAGGSLRLSCSASGSTIPVYAMGWYRQPPGKERELVAAITGSGARTYYADSVKGRFTFSRDNAKNTVYLQMNSLKPEDTAVYYCAKRTVIAVYGFPYRYGMNYWGQGTQVTVSS”: the “polyreactivity (PSR sort gate)” value was “high polyreactivity”. Then “QVQLVESGGGLVQAGGSLRLSCTASGIIFGTYAMGWYRQAPGKERELVAAISSSGVSTYYADSVKGRFTISRDNAKYTDYLQMNSLKPEDTAVYYCAAPLHYGYYYCGQGTQVTVSS”, with “high polyreactivity”. Regarding “QVQLVESGGGLVQAGGSLRLSCVASGLTQPSAIGWYRHAPGKERELVPRISWRGASTYYADSVKGRFTISRDTAKNNFYLQINSLKPEDTAVYYCAARSTIQRRGYYGYRVGRSEYGYWGQGTQVTVSS”, the “polyreactivity (PSR sort gate)” value is listed as “low polyreactivity”. Take “QVQLVESGGGLVQAGGSLRLSCVASGRIFLTYAMGWYRQAPGKERELVAAISYSGASTYYADSVKGRFTISRDNAKNTVYLQMNSLKPEDTAVYYCATERVGTPRMNYWGQGTQVTLSS”: the “polyreactivity (PSR sort gate)” value is recorded as “high polyreactivity”. On to “QVQLVESGGGLVQAGGSLRLSCVASGRTFGNKAMGWYRQAPGKERELVAAITSGGSTNYADSVKGCFTISRDNAKNTVYLQMNSLKPEDTAVYYCAAKQYRAGGGYWGQGTQVTVSS”, for which the “polyreactivity (PSR sort gate)” value is given as “high polyreactivity”. For the sequence “QVQLVESGGGLVQAGGSLRLSCVASGRTFSRYAMGWYRQAPGKERELVAAISRRGGSTYYADSVKGRFTISRDNAKNTVYLQMNRLKPEDTAVNYCAAGYITCGSGNWVVTPYDYWGQGTQVTVSS”, the “polyreactivity (PSR sort gate)” value is reported as “high polyreactivity”. Then “QVQLVESGGGLVQAGGSLRLSCVPPDMGWYRQAPGKERELVAAISRGGITNYADSVKRRFTISRDNAKNTVYLQMNSLKPEDTAVYYCAAEYTYYSYGGNYDYWGQGTQVTVSS”, with “low polyreactivity”; and “QVQLVESGGGLVQAGGSLRLSFAACGSIFTVYTMGWYRQAPGKERELVAAINSRGGTTYYADSVKGRFTISRDTAKNTVYLQMNSLKPEDTAVYYCAADWGYKDFGYWGQGTQVTVSS”, with “high polyreactivity”; and “QVQLVESGGGLVQAGGSLRLSFAASGFTFTLYAMGLYRQAPGKEREFVAAITARGGSTYYADSVKGRFTISRDNAKNTVYLQMNSLKPEDTAVYYCNKEYGSRRYPYRYNYWGQGTQVTVSS”, with “high polyreactivity”. Turning to “QVQLVESGGGLVQAGGSLRLSFAASGITFGYYDMGWYRQAPGKERELVASISSGGNTNYADSVKGRFTISRDNAKNTVYLQMNSLKPEDTAVYYCNVRYWGFYDYDYWGQGTQVTVSS”, the “polyreactivity (PSR sort gate)” value is “low polyreactivity”. As to “QVQLVESGGGLVQAGGSLRLSFAASGITFVRYAMGWYRQPPGKERALVAAISRSGTSTYSADSVKGRFTISRDNAKNTVYLQMNSLKPEDTAVYYCYVRRYDYWGQGTQVTVSS”, the “polyreactivity (PSR sort gate)” value was “high polyreactivity”. The entry for “QVQLVESGGGLVQAGGSLRLSFAASGLIFGYYTMGWYTQAPGKERELVAAITGIADSTYYADSVKGRFTISRDNAKNTVYLQMNSLKPEDTAVYYCAADKYVAEYDYWGQGTQVTVSS” is “low polyreactivity”; for “QVQLVESGGGLVQAGGSLRLSFAASGLTFHYYAMGWYIQEPGKERELVAVISSGGSTYYAYSVKGRFTISRDNAKNTVYLQMNSLKPEDTAVYYCAALSSRTYKTGYYTYDYWGQGTQVTVSS” it is “low polyreactivity”.

For “QVQLVESGGGLVQAGGSLRLSFAASGRIFDVYAMGRYRQAPGKERELVAAITWSGGRTYYADSVKGRFTLSRDNAKNTVYLQMNSLKPEDTAVYYCAAEKPYVRGYLGTYDYWGQGTQVTVSS”, the “polyreactivity (PSR sort gate)” value is listed as “low polyreactivity”. Turning to “QVQLVESGGGLVQAGGSLRLSFAASGRIFGWYAIGGYRKAAGTEREVVAAISTSGVRTYYADSVKGRFTISRDNAKITVYLQMKSLKPEDTAVYYCAARYIRAYSRDYWGQGTQVTVSS”, the “polyreactivity (PSR sort gate)” value is “high polyreactivity”. Regarding “QVQLVESGGGLVQAGGSLRLSFAASGRIFLYNTMGWYRQAPGKERELVARISWSGGSTKYADSVKGRFTISRDNAKNTVYLQMNSLKPEDTAVYYCNAGYFTEYNSWGQGTQVTVSS”, the “polyreactivity (PSR sort gate)” value is listed as “high polyreactivity”. Regarding “QVQLVESGGGLVQAGGSLRLSFAASGRTFHGYAMGWYRQAPGKERELVARINWSDGRTYYADSVKGRFTISRDNAKNTVYLQMNSLKPEDTAVYYCAADKTVSYAPAWYYYWGQGTHVTVSS”, the “polyreactivity (PSR sort gate)” value is on record as “low polyreactivity”. Then “QVQLVESGGGLVQAGGSLRLSFAASGSIFYRNSMGWYRQAPGKERELVAAISWSGASTYYADSVKGRFTISRDNAKNTVYLQMNSLKPEETAVYYCYAGKYAYLWLKLFDPKLDYWGQGTQVTVSS”, with “low polyreactivity”.
